This passage reports IC50 and Kd results from the Immune Epitope Database (IEDB).

What all share (settings): source organism: Vaccinia virus WR
For experiment [1], the target named is HLA-A*11:01. The experiment in a line: IEDB peptide-MHC binding, purified MHC/competitive/radioactivity; ≥ and ≤ were set here for values at or beyond the usual limits of such assays.
Experiment [2] has as its target HLA-A*31:01. As to the kind of experiment: IEDB peptide-MHC binding, purified MHC/competitive/radioactivity; filed as Kd, often an IC50 or EC50 that approximates it; ≥ and ≤ were set here for values at or beyond the usual limits of such assays.
The next experiment deals with HLA-A*68:01. Described as above.
Experiment [3] deals with HLA-A*33:01. Described as above.
Experiment [4] concerns the target HLA-A*03:01. The description is as above.
For experiment [5], the target named is HLA-A*03:01. The experiment in a line: IEDB peptide-MHC binding, purified MHC/competitive/radioactivity; ≥ and ≤ were set here for values at or beyond the usual limits of such assays.
Experiment [6] has as its target HLA-A*11:01. The experiment in a line: IEDB peptide-MHC binding, purified MHC/competitive/radioactivity; filed as Kd, often an IC50 or EC50 that approximates it; ≥ and ≤ were set here for values at or beyond the usual limits of such assays.
Experiment [7] concerns the target HLA-B*18:01. The experiment in a line: IEDB peptide-MHC binding, purified MHC/competitive/radioactivity; ≥ and ≤ were set here for values at or beyond the usual limits of such assays.
Another experiment deals with HLA-B*45:01. The experiment in a line: IEDB peptide-MHC binding, purified MHC/competitive/radioactivity; filed as Kd, often an IC50 or EC50 that approximates it; ≥ and ≤ were set here for values at or beyond the usual limits of such assays.
Experiment [8] deals with HLA-B*40:02. The description is as above.
Another experiment deals with HLA-B*44:03. The experiment is described as above.
The target of experiment [9] is HLA-B*40:01. The experiment is described as above.
The target in the next experiment is HLA-B*44:02. The experiment is described as above.
For another experiment, the target named is HLA-A*02:01. As to the kind of experiment: IEDB peptide-MHC binding, purified MHC/competitive/radioactivity; ≥ and ≤ were set here for values at or beyond the usual limits of such assays.
The next experiment concerns the target HLA-A*02:06. The experiment in a line: IEDB peptide-MHC binding, purified MHC/competitive/radioactivity; filed as Kd, often an IC50 or EC50 that approximates it; ≥ and ≤ were set here for values at or beyond the usual limits of such assays.
For another experiment, the target named is HLA-B*07:02. The experiment in a line: IEDB peptide-MHC binding, purified MHC/competitive/radioactivity; ≥ and ≤ were set here for values at or beyond the usual limits of such assays.
A further experiment addresses HLA-B*35:01. The experiment is described as above.
The target in another experiment is HLA-B*53:01. The experiment is described as above.
The target in another experiment is HLA-B*54:01. The description is as above.
In the next experiment the target is HLA-B*51:01. The experiment is described as above.
The target in experiment [10] is HLA-B*40:02. The description is as above.
Experiment [11] deals with HLA-B*40:01. Described as above.
For experiment [12], the target named is HLA-B*18:01. The experiment in a line: IEDB peptide-MHC binding, purified MHC/competitive/radioactivity; filed as Kd, often an IC50 or EC50 that approximates it; ≥ and ≤ were set here for values at or beyond the usual limits of such assays.
Experiment [13] addresses HLA-A*31:01. The experiment in a line: IEDB peptide-MHC binding, purified MHC/competitive/radioactivity; ≥ and ≤ were set here for values at or beyond the usual limits of such assays.
For experiment [14], the target named is HLA-A*33:01. Described as above.

The IC50 is the concentration that inhibits the measured activity by half. As usually defined, the Kd is a measure of binding affinity in units of concentration. Take ATSLDVINY: the IC50 with HLA-A*11:01 [1] was determined as 6.8 nM. In addition, the dissociation constant (Kd) with HLA-A*31:01 [2] is 10.3 µM; in the experiment with HLA-A*68:01, no less than 50 µM; with HLA-A*33:01 [3] it was no less than 50 µM; with HLA-A*03:01 [4], 625 nM.
In the case of AVKDVTITKK, the IC50 with HLA-A*03:01 [5] turned out to be 84 nM. Also, the Kd was 0.605 µM in the experiment with HLA-A*31:01 [2], 1.62 µM in the experiment with HLA-A*68:01, no less than 50 µM in the experiment with HLA-A*33:01 [3] and 519 nM in the experiment with HLA-A*11:01 [6].
For DELVDPINY, the IC50 with HLA-B*18:01 [7] worked out at 16 nM. The Kd with HLA-B*45:01 was 12.4 µM; with HLA-B*40:02 [8], 13.3 µM; with HLA-B*44:03, 2670 nM; with HLA-B*40:01 [9], 529 nM; with HLA-B*44:02, 14.3 µM.
Regarding FLVIAINAM, the IC50 in the experiment with HLA-A*02:01 came to 435 nM. Also, in the experiment with HLA-A*02:06, the Kd was found to be 930 nM.
Turning to MPAYIRNTL, the IC50 in the experiment with HLA-B*07:02 turned out to be 0.53 nM; with HLA-B*35:01 it was 19 nM; with HLA-B*53:01 it was 49 nM; with HLA-B*54:01, 3.4 nM; with HLA-B*51:01, 461 nM.
On to TEYDDHINL, for which the IC50 with HLA-B*40:02 [10] was determined as 108 nM; with HLA-B*40:01 [11], 7.5 nM. Besides, the Kd was determined as 645 nM with HLA-B*18:01 [12], 7.79 µM in the experiment with HLA-B*45:01, 1200 nM in the experiment with HLA-B*44:03 and 0.913 µM in the experiment with HLA-B*44:02.
As for YLLVKWYRK, the half-inhibitory concentration (IC50) in the experiment with HLA-A*31:01 [13] was determined as 45 nM; in the experiment with HLA-A*33:01 [14], 114 nM; with HLA-A*11:01 [1], 3.6 nM; with HLA-A*03:01 [5] it was 5.6 nM. Besides, in the experiment with HLA-A*68:01, the Kd was no less than 50 µM.
